The results in this text go back to the DeepSol protein solubility set.

A short description of the data set: soluble on expression in E. coli; label from the status in PepcDB or PDB records.
For “MLAKRIIPCLDVDKGRVVKGVKFLNLRDAGDPVEVAKRYEEEGADELVFLDITASAEDREIMIDVVKKVAETVFMPFTVGGGIRSLEDMRRLLEAGADKISINTAAVKNPNLIYEGAKRFGSQCIVVAIDAKRKGNSWEVYIHGGRTPTGLDAVEWAKKVESLGAGEILLTSMDRDGTKDGYDIELNRAISEAVNIPVIASGGAGKKEHFYEVFSKTKVEAALAASVFHFREISIPELKEYLLERGINVRPLD”, the “soluble on expression in E. coli” value is reported as “soluble”.

For the sequence “MLAKRSIALTAATLLREPILRREDIADSLLARDILADARQQATQILALEQEKAEHLQQQALAQFWENANAFLGELQVQREALQEQAMTAVEELLSESLRHLLDDTTLAERARALARNLAASQLNEAVATLSVHPQIADAVAEWLADSRFSEHWQLKRDATIASDSLRLSDANGAFDIAWADLRKGLLGVEPAA”, the “soluble on expression in E. coli” value is listed as “not soluble”.

As for “MLASRRLLPQISSRALSTSPALKSSEISVKEERPYVYNVKLNRPAKLNTFTMDMWREFKKAIDSLADDPKCRSIIISGEGKAFCAGIDIAHGLSDILRIIQDDTIEVGRKGRLVRKFIGEIQDCYTALERCPKPIIASIHSHCLGAGIDLITACDIRVASQDAIFSIREVDVGLAADIGTLNRIQKVVGNDSWTRDVAFTARDFGADEALRFGLISRIYDDRQSLLENSIDMAARIAEKSPIAVQGTKETLNYAREHSTDDSLNFIKTWNMSQLLSTDLLSSAMAVMNKKKATYEDV”, the “soluble on expression in E. coli” value was “not soluble”.

Turning to “MLDLLVVAPHPDDGELGCGGTLARAKAEGLSTGILDLTRGEMGSKGTPEEREKEVAEASRILGLDFRGNLGFPDGGLADVPEQRLKLAQALRRLRPRVVFAPLEADRHPDHTAASRLAVAAVHLAGLRKAPLEGEPFRVERLFFYPGNHPFAPSFLVKISAFIDQWEAAVLAYRSQFTGEAASETVGPKGVEARKAMRRYWGNYLGVDYAEPFVSPLPVLYVPWSRA”, the “soluble on expression in E. coli” value is given as “soluble”.

For “MLDLTTNPIDLTRALVDIESPSHYEKNIADAIEQALHAIDNVEVLRHGNTLVARTHRGLGERVILAGHIDTVPIADNVPSHMEGDVMFGCGTVDMKSGMAVYLHAFATLANHPALAKDLTVVCYEGEEVASEYNGLGHVQAAHPDWLSGDLALLGEPSGAVIEAGCQGTIRLRVTAHGVRAHSARSWLGDNAMHKLAPVITNIAQYHAQEMLVDGCLYHEGLNIVHCESGVATNTIPDEAWMFVNFRFAPNRSVDEALAHMLEVLDLPEGVTYDIDDAVPGARPGLDRPAAAALLEATGGKFRAKYGWTDVSRFSEIGVPAVNFGPGDPAYCHKKDEQCPVSMITEVSRTLVHYLTSTNSQTTGA”, the “soluble on expression in E. coli” value was “not soluble”.

Turning to “MLDPARSFDIIGDVHGCALTLERLLDALGYKRVAGVWRHPRRQALFLGDIVDRGPRIREALHIVHDMVEAGQAFCIMGNHEYNALGWVTPALPGSGKAYVREHTPRHARLIDETLTQFAQHPGDWHDFVNWFYQLPLFIDAGRFRLVHALEHHHHHH”, the “soluble on expression in E. coli” value was “not soluble”.

Turning to “MLDQVCQLARNAGDAIMQVYDGAKPMDVVSKADNSPVTAADIAAHTVIMDGLRTLTPDIPVLSEEDPPGWEVRQHWQRYWLVDPLDGTKEFIKRNGEFTVNIALIDHGKPILGVVYAPVMNVMYSAAEGKAWKEECGVRKQIQVRDARPPLVVISRSHADAELKEYLQQLGEHQTTSIGSSLKFCLVAEGQAQLYPRFGPTNIWDTAAGHAVAAAAGAHVHDWQGKPLDYTPRESFLNPGFRVSIY”, the “soluble on expression in E. coli” value was “not soluble”.

“MLEANVYDNFNPNYYNISDFSMPNGKKEKRGLPIPKARCQVINYELWETGYLYTSSATLTVSVEVGDIVQILFPEVVPIEEALGKKKKLNLDMVYLVTDVDESNKATLKNYFWAMIESLDVPNAITKTTNFAIIDYLIDPNKNNLMSYGYFFNSSIFAGKATINRKAETSSAHDVAKRIFSKVQFQPTTTIQHAPSETDPRNLLFINFASRNWNRKRITTRVDIKQSVTMDTETIVERSAYNFAVVFVKNKATDDYTDPPKMYIAKNNGDVIDYSTYHGDGTDLPDVRTAKTLFYDRDDHGNPPELSTIKVEISPSTIVTRLIFNQNELLPLYVNDLVDIWYEGKLYSGYIADRVKTEFNDRLIFVESGDKPNVI”: the “soluble on expression in E. coli” value is recorded as “soluble”.

Regarding “MLEEDKIKGMFNPKIWDKTFQDGLKKEIEDSQPYNWGTIHELVNDDLLRAVRKEIETEIHFTKKETDIYRVNQSGDLANLSGLDWDDLSRLPNLFKLRQILYSKQYRDFFGYVTKAGKLSGSKTDMSINTYTKGCHLLTHDDVIGSRRISFILYLPDPDRKWKSHYGGGLRLFPSILPNVPHSDPSAKLVPQFNQIAFFKVLPGFSFHDVEEVKVDKHRLSIQGWYHIPQVGEEGYIPGEEEAWVRNNTSTLAQIESNVLEDFEFPKDERNILSFHEVKHFEKMLKGDAGAKTDNTPKESMTSVISDSVKLSEAEFTYLSQYISPEHLSSKGIEKLQKQFVENSSLQIESFLNDDKSELLKKVIKQKELEQECPYHSKDVKAPWKTAIPPHKARYLYIDGKEYRNFQTEADILEALNNNDLPNFQFTKDAIKIISDASGNSRENNFDAELALIDLAVFHKSTIFKKYLALLTSLCPVSEQILIRRFRPGMDFTLATKCRFNELLKSNPDIIDAVLEGTLCLTPSAGWESGELGGYELYMMDDDEDNKQYLKEDVEDASVYRADDSGDSVLINDPPAWNTFNLVLRDESVLEFVKYVSWSAKSSRWDVKMKWDVKSCDEDGQEDEALEHHHHHH”, the “soluble on expression in E. coli” value is “soluble”.

Turning to “MLEIVSEELRHYQEQKLIEYRNKNQLAPKGGIVFAGDSLIEFFPLKKAFGSCLPIINRGIAGIDSQWLLRHFSVQITDLEPKHIFLLIGCNDIGLGYDKCHIVKTIVELISQIRSHCVYSQIYLLSLLPVSNNPRYQKTVKIRTNAMIDAINKDLAMIPTVEFINLNTCLKDEKGGLSDENTLDGLHLNFPAYAKLAEIIKSYI”, the “soluble on expression in E. coli” value is reported as “not soluble”.

Regarding “MLELAILGLLIESPMHGYELRKRLTGLLGAFRAFSYGSLYPALRRMQADGLIAENAAPAGTPVRRARRVYQLTDKGRRRFGELVADTGPHNYTDDGFGVHLAFFNRTPAEARMRILEGRRRQVEERREGLREAVARASSSFDRYTRQLHQLGLESSEREVKWLNELIAAERAAPNPAEQT”, the “soluble on expression in E. coli” value is listed as “not soluble”.

“MLFDSHAHYDNKRFDEDRFEVIKKAYDSGVSYILNAAADMASSLETVSLTRKFDFIYGAVGVHPHEVAKMSDDDIEKLKDFAKEEKIVAIGEIGLDYYYDFSPREQQKLWFARQINLAKELNLPIIVHDRDAHKDVLDIVKAEQAKDVGGVFHCYSGSVEMLKDVLENNFYISVGGTLTFKNAKRVVEVVERVPLDRLLIETDCPYLTPEPHRGKRNDSSYVRLVAEKIAKIRGMSFEEVAEITTNNAKRLFGIK”: the “soluble on expression in E. coli” value is given as “not soluble”.

In the case of “MLFVLILSHRAASYGAIMAALPYMQLYIADYLADTMHLSAEEHGAYLLLMFNYWQTGKPIPKNRLAKIARLTNERWADVEPSLQEFFCDNGEEWVHLRIEEDLASVREKLTKKSAAGKASVQARRSRKEADVQTKQERNLTGVQTDVEVVFEHDVNTKATNKDTDKDLKTDPPLNPPRGNRGVKKFDPLDITLPNWISVSLWREWVEFRQALRKPIRTEQGANGAIRELEKFRQQGFSPEQVIRHSIANEYQGLFAPKGVRPETLLRQVNTVSLPDSAIPPGFRG”, the “soluble on expression in E. coli” value is listed as “not soluble”.

Consider “MLGDGLSVALAGLLHDVGKLYSRARWGERDDQVPDRTHTAYTAHFVREHAGLFRGAGLDPDWLARTASRHHEGWRDRPQYRPETPEEWCVALADTYASKEREEGEGGGSPPEVPLSPPFRRLLLGGEEGREGGYSPVGAGGRVGLEAGGLYPEERPNVSKDVYKRLLERLEGRLEEMARFSLGKEALVLNLALALQETLSLVPSDTQSEPDVSLYDHLRLTAAIAHALWLFHGGSPSAQNLRQDGEKFLLVVGDMGGIQGHIYRIAGAEAGVGGIAKRLRARSLEVSLAAEAMALGLLWRLGLTSLNRILGAGGKFYLLLPNTEEARAALEGTREAWGRWALKRGGSLVPHLAWVAFRGQDFRDFAALLKRLHEALAREKLRPFAFLASTGGVLGAPLRPCAACGLEPARRDEPGSLCPDCEREAALGARLPRSDRVGFFLEEAPRPYLDFPGLKVGLGGPLEGAFHLFRARLDFAPWPDPSEAKPLLGHLPRVEHALKAKGWSLEAYRAWAEEEGLLEDEEPHPEKVLTFAELAALSEGAPYLGALMLDADRMGEAFATGFRREGRDLATPSRLAALSRTLEVFFTTEVLTLLEEPRRYRERLGWDDLEAQRKEARYPLLYSVYSGGDDLFLLGPWDALLDFALDLERLYRLFTRHPRLTLSGGFLLVPPSLPVPELARLLGEAEKRAKAEGRERLFLFGQAVPWETLRGLRAWAEGLRQDLRAERVSRAQVYRWLLLWRRFSPLEDPGERMRYKPLLAYALRRVRERDEEAWKRYLKLLDHQDPAWAYLPVWVQWALYRERRV”, for which the “soluble on expression in E. coli” value was “soluble”.

For the sequence “MLGKSLVKEKITDSVVSSPNGLVLLAPEMTLPVDVEENKPEESKDSAHERNCATAGVESPSNPVDSCLKLTYVEEGDNDRESNLKLLDGSVEEKEDTKKLTDIDINSLPDEVDDSHADQSDTKEQEIDDKEDKTPLSDDGCEGKAEGTKESNQQPDSNKVDNSQPLGNGGTGEELGNRTLALKREVTPTLRASPRLIQRSWRTSRVNQKFTGTTNAVLLDSPHRCV”, the “soluble on expression in E. coli” value is “soluble”.

Consider “MLGLFDQGRLIGAVVLDPRRLGPERDWLQLKFLHLSHAYRRRGLGAHLFHLAATQARHLGASALYVSATPSQNTVDFYTRLGCR”, for which the “soluble on expression in E. coli” value was “soluble”.

As to “MLGMHFTPVEVFHRYIMPQIRDHLNDYLWVDMFCGEGNLILPMLDYIDRDRRGEFFRDHIMCFDIDESAVERSIENAMKYGIPQEMARRNIRTRDTLMDYPVLSGRYPVFHITNPPYLYLGYIRKRKDARRHQEYFEGQNDGYQDLYQIAMMNDLRHGIGNMIYIIPSNFFFSDAGTRKIREDFLKIYRIGSCYIFERRIFPSTGTNVMILSFQRSQSPVESIEFDAIRINKHEEKKRYVLRSENNFKPDNEYQDYIRAHFRPDHPVVKFYLTYDEIGKNPGNNRVVLVNSKEYRHGEYERETFSVNDDLYARIKSNPLYVRTVDKGTREGRSGIYSIIRDFGADGIFVKGPTYRTSPIQIFIDPPLSANEALKLMEIFNRTLNDLRERSDSDFMTTYKYSDSAAYVRKYLGLKQVRGIMSTISLEDLKDGASSTDL”, the “soluble on expression in E. coli” value is “not soluble”.

With “MLHTTDFSDIFSSDYSSKVSFKKGDIIHSFKDYEKKPPQIGVILEGTAVLEGPTNEGRWMINALISENAIFGMESLLETKTAPELTEYRVRALENGRALFIDREFFLNYLYANPHFFHLVLDDVIVRYLFTAKNYKNINQPPIIKVTRIFVEIIELLNLHQTEGPIVLPSYITQTFLADYCRSSRARITESLEELLVNGLLASKKPITISSHEKLLDQIDSFQTGNGLLTK”, the “soluble on expression in E. coli” value is recorded as “not soluble”.

In the case of “MLHTTQLYQHVPETRWPIVYSPRYNITFMGLEKLHPFDAGKWGKVINFLKEEKLLSDSMLVEAREASEEDLLVVHTRRYLNELKWSFAVATITEIPPVIFLPNFLVQRKVLRPLRTQTGGTIMAGKLAVERGWAINVGGGFHHCSSDRGGGFCAYADITLAIKFLFERVEGISRATIIDLDAHQGNGHERDFMDDKRVYIMDVYNRHIYPGDRFAKQAIRRKVELEWGTEDDEYLDKVERNIKKSLQEHLPDVVVYNAGTDILEGDRLGGLSISPAGIVKRDELVFRMVRGRRVPILMVTSGGYQKRTARIIADSILNLFGLGLIGPESPSVSAQNSDTPLLPPAVP”, the “soluble on expression in E. coli” value is given as “soluble”.

For the sequence “MLIAVPLDDTNFSENLKKAKEKGADIVELRVDQFSDTSLNYVKEKLEEVHSQGLKTILTIRSPEEGGREVKNREELFEELSPLSDYTDIELSSRGLLVKLYNITKEAGKKLIISYHNFELTPPNWIIREVLREGYRYGGIPKIAVKANSYEDVARLLCISRQVEGEKILISMGDYGKISRLAGYVFGSVITYCSLEKAFAPGQIPLEEMVELRKKFYRL”, the “soluble on expression in E. coli” value was “soluble”.
